For assay [1], the target named is T1, mouse MST1R with N-terminal Flag tag, expressed on HEK293T cells (mouse, UniProt Q62190 24-1378).
T1 construct: ORF cloned excluding the signal peptide region; not shown: N-terminal Flag tag from vector pFLAG-myc-CMV-19 (Sigma)
T1 sequence: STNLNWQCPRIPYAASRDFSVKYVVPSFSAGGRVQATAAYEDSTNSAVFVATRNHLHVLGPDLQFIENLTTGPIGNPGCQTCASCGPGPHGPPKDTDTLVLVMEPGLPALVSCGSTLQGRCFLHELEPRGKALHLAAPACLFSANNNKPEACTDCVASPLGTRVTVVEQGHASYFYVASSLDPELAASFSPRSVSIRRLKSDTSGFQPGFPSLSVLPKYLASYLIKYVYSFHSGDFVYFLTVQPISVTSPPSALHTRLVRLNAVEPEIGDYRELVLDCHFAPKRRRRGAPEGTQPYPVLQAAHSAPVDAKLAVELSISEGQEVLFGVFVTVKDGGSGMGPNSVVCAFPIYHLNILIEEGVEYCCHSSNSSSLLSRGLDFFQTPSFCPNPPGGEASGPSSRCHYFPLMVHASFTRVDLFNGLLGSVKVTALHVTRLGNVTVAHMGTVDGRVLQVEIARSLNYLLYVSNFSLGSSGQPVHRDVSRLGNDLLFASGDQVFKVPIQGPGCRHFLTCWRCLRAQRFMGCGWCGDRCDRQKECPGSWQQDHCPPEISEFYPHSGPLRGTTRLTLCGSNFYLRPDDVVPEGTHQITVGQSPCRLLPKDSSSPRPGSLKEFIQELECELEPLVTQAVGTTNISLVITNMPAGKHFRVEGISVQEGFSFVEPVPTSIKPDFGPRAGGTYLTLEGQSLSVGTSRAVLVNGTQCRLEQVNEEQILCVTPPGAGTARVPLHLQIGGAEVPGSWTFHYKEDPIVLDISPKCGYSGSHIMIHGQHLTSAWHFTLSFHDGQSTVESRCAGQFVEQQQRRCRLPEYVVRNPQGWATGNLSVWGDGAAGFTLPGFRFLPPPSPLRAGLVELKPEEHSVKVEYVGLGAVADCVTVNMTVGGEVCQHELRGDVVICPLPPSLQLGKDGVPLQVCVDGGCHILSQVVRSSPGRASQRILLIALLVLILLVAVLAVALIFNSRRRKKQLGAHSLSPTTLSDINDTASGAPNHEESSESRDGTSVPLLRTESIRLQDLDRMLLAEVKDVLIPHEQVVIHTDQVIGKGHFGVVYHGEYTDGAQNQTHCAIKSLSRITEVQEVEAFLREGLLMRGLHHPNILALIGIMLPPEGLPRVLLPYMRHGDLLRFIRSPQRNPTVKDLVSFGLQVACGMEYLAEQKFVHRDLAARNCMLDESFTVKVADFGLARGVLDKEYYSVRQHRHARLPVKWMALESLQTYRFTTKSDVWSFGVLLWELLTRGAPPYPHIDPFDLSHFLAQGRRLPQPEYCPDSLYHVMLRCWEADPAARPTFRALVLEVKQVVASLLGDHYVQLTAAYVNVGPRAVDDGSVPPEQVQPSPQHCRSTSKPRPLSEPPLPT
Description: flow cytometry on HEK293T cells transfected with Flag-tagged mouse MST1R (expression shown by αFlag), FITC-labeled secondary antibody. The protocol: Cells (5×10⁵ cells/well) were incubated with Fab or IgG antibodies at the indicated concentrations in 50 μl FACS buffer (PBS, 5% FCS) for 60 min at 4° C. in round bottom 96-well culture plates (Corning). Cells were washed twice and then incubated with Fluorescein Isothiocyanate (FITC) conjugated detection antibody for 30 min at 4° C. Cells were washed again, resuspended in 0.3 ml FACS buffer and then analyzed by flow cytometry in a Cytomics FC500 (Beckman Coulter, Inc.). Data were analysed via FlowJo software (Tomy digital biology Co., Ltd.). Polyclonal goat anti-hMSP R IgG (R&D systems) or anti-FLAG M2 antibody (Sigma) was used as a positive control and MOR03207 (anti-lysozyme) antibody was used as a negative control.
FACS-analysis of MST1R ortholog-expressing cells: Human MST1R (cDNA nucleotide sequence is shown as GenBank Accession No: NM_{—}002447.2), cynomolgus monkey MST1R and mouse MST1R (cDNA nucleotide sequence is shown as GeneBank Accession No: NM_{—}009074.1) expression vector containing N-terminal Flag tag (pFLAG-myc-CMV-19, Sigma) were constructed. cDNA encoding cynomolgus monkey MST1R was amplified by PCR using cynomolgus monkey stomach cDNA as a template with forward and reverse primers having nucleotide sequences of SEQ ID NO: 34 and 35, respectively. By sequencing analysis of PCR product, the cynomolgus MST1R ORF nucleotide sequence was identified as shown in SEQ ID NO: 36. The corresponding amino acid sequence was shown in SEQ ID NO: 37. Then human, cynomolgus monkey and mouse MST1R ORF cDNA, excluding signal peptide regions, were amplified using respective forward and reverse primers having nucleotide sequences of SEQ ID NO: 38 and 39 (human), 40 and 41 (cynomolgus monkey), and 42 and 43 (mouse) with appropriate cloning sites and then cloned into pFLAG-myc-CMV-19. An amplified human MST1R fragment encodes amino acids corresponding to GenBank Accession No: NP_{—}002438.2 (SEQ ID NO: 45). A Mouse MST1R fragment encodes amino acids corresponding to GenBank Accession No: NP_{—}033100.1 (SEQ ID NO: 47) except for those amino acid differences at positions: 688 (Leu to Pro), 713 (Ile to Val), 714 (Ala to Gly) and 719 (Ala to Val). These expression vectors were transfected into HEK293T cells. For FACS-analysis, cells were incubated with 2 μg/ml primary antibodies followed by incubation with FITC-labeled secondary antibody as described above.

Assay [2] deals with MST1R on cells (293alpha cells transfected with pcDNA-DEST40 MST1R; endogenous on PC3, T-47D and BxPC-3 cells) (human, UniProt Q04912 25-1400). Description: cell-based or functional assay.

B1: MOR07923 (human IgG1) (antibody, V domains shown)
VH: QVQLVESGGGLVQPGGSLRLSCAASGFTFNSYSMSWVRQAPGKGLEWVSYISSRSSTTYYADSVKGRFTISRDNSKNTLYLQMNSLRAEDTAVYYCARGYFHGMDYWGQGTLVTVSS
VL: DIVLTQSPATLSLSPGERATLSCRASQSVSFDYLGWYQQKPGQAPRLLIYGASNRATGVPARFSGSGSGTDFTLTISSLEPEDFATYYCFQYLIVPFTFGQGTKVEIKR
On to B1, for which the binding result in assay [1] is reported as “no binding (tested: 2 µg/ml)”. Besides, the “Reporter assay IC50 (ng/ml); Elk1 luciferase reporter gene assay in the presence of 100 ng/ml MSP” value (shortened to “Reporter assay IC50 (ng/ml)”) in assay [2] turned out to be 9 ng/mL.

B2: MOR07692 (human IgG1) (antibody, V domains shown)
VH: QVQLVESGGGLVQPGGSLRLSCAASGFTFNSYSMSWVRQAPGKGLEWVSYISSRSSTTYYADSVKGRFTISRDNSKNTLYLQMNSLRAEDTAVYYCARGYFHGMDYWGQGTLVTVSS
VL: DIVLTQSPATLSLSPGERATLSCRASQSVSFDYLGWYQQKPGQAPRLLIYGASNRATGVPARFSGSGSGTDFTLTISSLEPEDFATYYCQQYYNMPYTFGQGTKVEIKR
Consider B2, for which the binding result in assay [1] is reported as “no binding (tested: 2 µg/ml)”. Moreover, the “Reporter assay IC50 (ng/ml)” value in assay [2] turned out to be 4.4 ng/mL.

B3: MOR07924 (human IgG1) (antibody, V domains shown)
VH: QVQLVESGGGLVQPGGSLRLSCAASGFTFNSYSMSWVRQAPGKGLEWVSYISSRSSTTYYADSVKGRFTISRDNSKNTLYLQMNSLRAEDTAVYYCARGYFHGMDYWGQGTLVTVSS
VL: DIVLTQSPATLSLSPGERATLSCRASQSVSFDYLGWYQQKPGQAPRLLIYGASNRATGVPARFSGSGSGTDFTLTISSLEPEDFATYYCQQYNINPFTFGQGTKVEIKR
On to B3, for which the binding result in assay [1] is recorded as “no binding (tested: 2 µg/ml)”. Further, the “Reporter assay IC50 (ng/ml)” value in assay [2] came out at 15.7 ng/mL.

B4: MOR07926 (human IgG1) (antibody, V domains shown)
VH: QVQLVESGGGLVQPGGSLRLSCAASGFTFNSYSMSWVRQAPGKGLEWVSYISSRSSTTYYADSVKGRFTISRDNSKNTLYLQMNSLRAEDTAVYYCARGYFHGMDYWGQGTLVTVSS
VL: DIVLTQSPATLSLSPGERATLSCRASQSVSFDYLGWYQQKPGQAPRLLIYGASNRATGVPARFSGSGSGTDFTLTISSLEPEDFATYYCFQALIMPFTFGQGTKVEIKR
For the molecule B4, the binding result in assay [1] is recorded as “no binding (tested: 2 µg/ml)”. Also, in assay [2], the “Reporter assay IC50 (ng/ml)” value is 11.4 ng/mL.

B5: MOR07925 (human IgG1) (antibody, V domains shown)
VH: QVQLVESGGGLVQPGGSLRLSCAASGFTFNSYSMSWVRQAPGKGLEWVSYISSRSSTTYYADSVKGRFTISRDNSKNTLYLQMNSLRAEDTAVYYCARGYFHGMDYWGQGTLVTVSS
VL: DIVLTQSPATLSLSPGERATLSCRASQSVSFDYLGWYQQKPGQAPRLLIYGASNRATGVPARFSGSGSGTDFTLTISSLEPEDFATYYCLQYFNPPHTFGQGTKVEIKR
For B5, in assay [1], the binding result is “no binding (tested: 2 µg/ml)”. Also, in assay [2], the “Reporter assay IC50 (ng/ml)” value amounted to 5.9 ng/mL.

The values above are taken from patent US20120034215A1 (Daiichi Sankyo, published 2012).
